{"source": "patent US20080219985A1", "about": "(published 2008)", "key": {"GPCR73a receptor [1]": {"target": "T1, GPCR73a receptor (human, UniProt Q8TCW9 1-393)", "T1 sequence (Q8TCW9 whole entry)": "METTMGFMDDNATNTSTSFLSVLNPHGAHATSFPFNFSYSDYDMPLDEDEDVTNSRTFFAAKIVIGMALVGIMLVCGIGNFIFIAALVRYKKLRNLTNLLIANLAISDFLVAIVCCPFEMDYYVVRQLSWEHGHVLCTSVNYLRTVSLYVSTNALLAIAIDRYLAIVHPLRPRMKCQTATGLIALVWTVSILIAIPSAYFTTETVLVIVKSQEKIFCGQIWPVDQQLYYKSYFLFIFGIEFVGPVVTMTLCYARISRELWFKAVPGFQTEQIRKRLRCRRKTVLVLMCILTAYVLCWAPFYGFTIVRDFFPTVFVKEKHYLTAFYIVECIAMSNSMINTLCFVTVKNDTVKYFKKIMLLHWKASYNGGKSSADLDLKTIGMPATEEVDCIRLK", "assay": "cell-based or functional assay"}, "GPCR73a receptor [2]": {"target": "T1, GPCR73a receptor", "assay": "cell-based or functional assay", "remark": "listed apart in the source"}, "GPCR73b receptor [3]": {"target": "T2, GPCR73b receptor (Homo sapiens (Human), UniProt Q8NFJ6 1-384)", "T2 sequence (Q8NFJ6 whole entry)": "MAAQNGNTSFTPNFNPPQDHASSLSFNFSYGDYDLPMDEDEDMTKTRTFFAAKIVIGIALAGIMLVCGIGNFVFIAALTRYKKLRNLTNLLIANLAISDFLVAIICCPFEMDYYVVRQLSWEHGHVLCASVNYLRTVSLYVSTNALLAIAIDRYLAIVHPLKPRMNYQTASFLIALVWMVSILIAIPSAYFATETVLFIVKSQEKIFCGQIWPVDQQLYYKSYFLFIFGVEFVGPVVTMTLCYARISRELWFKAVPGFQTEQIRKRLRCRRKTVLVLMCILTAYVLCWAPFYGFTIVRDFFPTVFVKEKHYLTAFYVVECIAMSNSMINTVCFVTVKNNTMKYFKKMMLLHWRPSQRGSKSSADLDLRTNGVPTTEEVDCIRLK", "assay": "cell-based or functional assay"}, "GPCR73b receptor [4]": {"target": "T2, GPCR73b receptor", "assay": "cell-based or functional assay", "remark": "listed apart in the source"}, "[5]": {"target": "T3, PROK2 receptor on Wky12-22 cells (rat aortic smooth muscle cells) (rat)", "T3 sequence (Q4AEG4 whole entry)": "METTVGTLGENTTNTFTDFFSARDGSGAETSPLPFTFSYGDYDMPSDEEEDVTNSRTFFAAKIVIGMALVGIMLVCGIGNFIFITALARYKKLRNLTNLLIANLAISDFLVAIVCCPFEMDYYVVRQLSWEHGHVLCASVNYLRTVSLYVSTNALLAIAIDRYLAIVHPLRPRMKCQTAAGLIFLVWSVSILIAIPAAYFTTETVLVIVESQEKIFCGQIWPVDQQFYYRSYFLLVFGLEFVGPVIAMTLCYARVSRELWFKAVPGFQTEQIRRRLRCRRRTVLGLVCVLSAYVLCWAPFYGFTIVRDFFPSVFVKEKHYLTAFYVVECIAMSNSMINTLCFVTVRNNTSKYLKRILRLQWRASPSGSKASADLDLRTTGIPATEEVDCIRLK", "assay": "cell-based or functional assay"}, "[6]": {"target": "PROK2 receptor on 4T1.2 murine breast cancer cells (mouse)", "assay": "cell-based or functional assay"}, "[7]": {"target": "T3, PROK2 receptor on Wky12-22 cells (rat …)", "assay": "saturation binding of I-125 PROK2 to Wky12-22 cell monolayers at 4 C, two-site nonlinear regression, low affinity site", "method": "(§1) The binding of PROK2 to Wky12-22 cells was assessed using I¹²⁵-radiolabeled PROK2. Wky12-22 cells were seeded at low cell density and cultured for three to four days until they reached about 70% confluency. The cells were placed on ice, the medium was removed, and the monolayers were washed. The cells were incubated with increasing amounts of I¹²⁵-PROK2 in the absence (total binding) and presence (nonspecific binding) of a large excess of unlabeled PROK2. After various times at 4° C., the binding media were removed, the monolayers were washed, and the cells were solubilized with a small volume of 1.0 N NaOH. Cell associated radioactivity was determined in a gamma counter. The specific binding of I¹²⁵-PROK2 was calculated as the difference between the total and nonspecific values. The measured radioacitivity was normalized to cell number that was determined on a set of parallel cultures. Nonlinear regression using a two-site model was used to fit the binding data for determination of Kd and Bmax."}, "[8]": {"target": "T3, PROK2 receptor on Wky12-22 cells (rat …)", "assay": "saturation binding of I-125 PROK2 to Wky12-22 cell monolayers at 4 C, two-site nonlinear regression, high affinity site", "method": "as §1"}, "GPCR73a receptor [9]": {"target": "T1, GPCR73a receptor", "assay": "cell-based or functional assay", "remark": "listed apart in the source"}}, "note": "Values joined by “and” are separate entries in the source; they are usually repeats but may differ in a detail not shown here. Equal values may be shown once. Read-outs that look alike come from different tables or passages of the source.", "data": [{"binder": "human PROK2 produced in E. coli (in house) (ligand) AVITGACDKDSQCGGGMCCAVSIWVKSIRICTPMGKLGDSCHPLTRKVPFFGRRMHHTCPCLPGLACLRTSFNRFICLAQK", "values": [{"measurement": "SRE-luciferase fold-induction at 1 ng/ml", "setting": "GPCR73a receptor [1]", "value": 1.9, "unit": "fold-induction"}, {"measurement": "SRE-luciferase fold-induction at 3.2 ng/ml", "setting": "GPCR73a receptor [1]", "value": 4, "unit": "fold-induction"}, {"measurement": "SRE-luciferase fold-induction at 10 ng/ml", "setting": "GPCR73a receptor [1]", "value": 8.4, "unit": "fold-induction"}, {"measurement": "SRE-luciferase fold-induction at 32 ng/ml", "setting": "GPCR73a receptor [1]", "value": 15, "unit": "fold-induction"}, {"measurement": "SRE-luciferase fold-induction at 100 ng/ml", "setting": "GPCR73a receptor [1]", "value": 19, "unit": "fold-induction"}, {"measurement": "SRE-luciferase fold-induction at 320 ng/ml", "setting": "GPCR73a receptor [1]", "value": 20.7, "unit": "fold-induction"}, {"measurement": "SRE-luciferase fold-induction at 1000 ng/ml", "setting": "GPCR73a receptor [1]", "value": 17.8, "unit": "fold-induction"}, {"measurement": "SRE-luciferase fold-induction at 1 ng/ml", "setting": "GPCR73a receptor [2]", "value": 4.1, "unit": "fold-induction"}, {"measurement": "SRE-luciferase fold-induction at 3.2 ng/ml", "setting": "GPCR73a receptor [2]", "value": 7.6, "unit": "fold-induction"}, {"measurement": "SRE-luciferase fold-induction at 10 ng/ml", "setting": "GPCR73a receptor [2]", "value": 10.2, "unit": "fold-induction"}, {"measurement": "SRE-luciferase fold-induction at 32 ng/ml", "setting": "GPCR73a receptor [2]", "value": 14.1, "unit": "fold-induction"}, {"measurement": "SRE-luciferase fold-induction at 100 ng/ml", "setting": "GPCR73a receptor [2]", "value": 17.6, "unit": "fold-induction"}, {"measurement": "SRE-luciferase fold-induction at 320 ng/ml", "setting": "GPCR73a receptor [2]", "value": 22, "unit": "fold-induction"}, {"measurement": "SRE-luciferase fold-induction at 1000 ng/ml", "setting": "GPCR73a receptor [2]", "value": 13.9, "unit": "fold-induction"}, {"measurement": "SRE-luciferase fold-induction at 1 ng/ml", "setting": "GPCR73b receptor [3]", "value": 1, "unit": "fold-induction"}, {"measurement": "SRE-luciferase fold-induction at 3.2 ng/ml", "setting": "GPCR73b receptor [3]", "value": 1.2, "unit": "fold-induction"}, {"measurement": "SRE-luciferase fold-induction at 10 ng/ml", "setting": "GPCR73b receptor [3]", "value": 1.7, "unit": "fold-induction"}, {"measurement": "SRE-luciferase fold-induction at 32 ng/ml", "setting": "GPCR73b receptor [3]", "value": 2.6, "unit": "fold-induction"}, {"measurement": "SRE-luciferase fold-induction at 100 ng/ml", "setting": "GPCR73b receptor [3]", "value": 4.4, "unit": "fold-induction"}, {"measurement": "SRE-luciferase fold-induction at 320 ng/ml", "setting": "GPCR73b receptor [3]", "value": 5.2, "unit": "fold-induction"}, {"measurement": "SRE-luciferase fold-induction at 1000 ng/ml", "setting": "GPCR73b receptor [3]", "value": 4.8, "unit": "fold-induction"}, {"measurement": "SRE-luciferase fold-induction at 1 ng/ml", "setting": "GPCR73b receptor [4]", "value": 0.7, "unit": "fold-induction"}, {"measurement": "SRE-luciferase fold-induction at 3.2 ng/ml", "setting": "GPCR73b receptor [4]", "value": 1.3, "unit": "fold-induction"}, {"measurement": "SRE-luciferase fold-induction at 10 ng/ml", "setting": "GPCR73b receptor [4]", "value": 1.9, "unit": "fold-induction"}, {"measurement": "SRE-luciferase fold-induction at 32 ng/ml", "setting": "GPCR73b receptor [4]", "value": 3, "unit": "fold-induction"}, {"measurement": "SRE-luciferase fold-induction at 100 ng/ml", "setting": "GPCR73b receptor [4]", "value": 4.7, "unit": "fold-induction"}, {"measurement": "SRE-luciferase fold-induction at 320 ng/ml", "setting": "GPCR73b receptor [4]", "value": 6.3, "unit": "fold-induction"}, {"measurement": "SRE-luciferase fold-induction at 1000 ng/ml", "setting": "GPCR73b receptor [4]", "value": 7.1, "unit": "fold-induction"}]}, {"binder": "human PROK2 (preparation not stated for the assay) (ligand) AVITGACDKDSQCGGGMCCAVSIWVKSIRICTPMGKLGDSCHPLTRKVPFFGRRMHHTCPCLPGLACLRTSFNRFICLAQK", "values": [{"measurement": "ERK 1/2 phosphorylation in Wky12-22 cells, 15 minutes after 100 ng/ml PROK2", "setting": "[5]", "value": 11, "unit": "fold induction over basal"}, {"measurement": "JNK phosphorylation in Wky12-22 cells, 15 minutes after 100 ng/ml PROK2", "setting": "[5]", "value": 3, "unit": "fold"}, {"measurement": "ERK phosphorylation in 4T1.2 cells (BIO-PLEX phospho-protein assay), maximal at 100 ng/ml PROK2", "setting": "[6]", "value": 1.8, "unit": "fold"}]}, {"binder": "human PROK2 with a carboxy-terminal Glu-Glu tag, produced in baculovirus (PROK2cee) (ligand, also called huPROK2-CEE-Bv; Baculovirus-expressed PROK2) AVITGACDKDSQCGGGMCCAVSIWVKSIRICTPMGKLGDSCHPLTRKVPFFGRRMHHTCPCLPGLACLRTSFNRFICLAQKGLEYMPMD", "values": [{"measurement": "EC50 of ERK-Map kinase activity in Wky12-22 cells", "setting": "[5]", "value": "0.5 nM and ~5 ng/ml"}, {"measurement": "Kd", "setting": "[7]", "value": 31, "unit": "nM"}, {"measurement": "Kd", "setting": "[8]", "value": 1.5, "unit": "nM"}, {"measurement": "SRE-luciferase fold-induction at 1 ng/ml, PROK2 heated at 56 C for 30 minutes", "setting": "GPCR73a receptor [9]", "value": 1.8, "unit": "fold-induction"}, {"measurement": "SRE-luciferase fold-induction at 1 ng/ml, fresh PROK2", "setting": "GPCR73a receptor [9]", "value": 2.5, "unit": "fold-induction"}, {"measurement": "SRE-luciferase fold-induction at 3.2 ng/ml, PROK2 heated at 56 C for 30 minutes", "setting": "GPCR73a receptor [9]", "value": 3.7, "unit": "fold-induction"}, {"measurement": "SRE-luciferase fold-induction at 3.2 ng/ml, fresh PROK2", "setting": "GPCR73a receptor [9]", "value": 7.1, "unit": "fold-induction"}, {"measurement": "SRE-luciferase fold-induction at 10 ng/ml, PROK2 heated at 56 C for 30 minutes", "setting": "GPCR73a receptor [9]", "value": 10, "unit": "fold-induction"}, {"measurement": "SRE-luciferase fold-induction at 10 ng/ml, fresh PROK2", "setting": "GPCR73a receptor [9]", "value": 13.1, "unit": "fold-induction"}, {"measurement": "SRE-luciferase fold-induction at 32 ng/ml, PROK2 heated at 56 C for 30 minutes", "setting": "GPCR73a receptor [9]", "value": 14.8, "unit": "fold-induction"}, {"measurement": "SRE-luciferase fold-induction at 32 ng/ml, fresh PROK2", "setting": "GPCR73a receptor [9]", "value": 18.7, "unit": "fold-induction"}, {"measurement": "SRE-luciferase fold-induction at 100 ng/ml, PROK2 heated at 56 C for 30 minutes", "setting": "GPCR73a receptor [9]", "value": 18.6, "unit": "fold-induction"}, {"measurement": "SRE-luciferase fold-induction at 100 ng/ml, fresh PROK2", "setting": "GPCR73a receptor [9]", "value": 20.5, "unit": "fold-induction"}]}]}
